Measurements published in the DeepSol protein solubility set.

assay: soluble on expression in E. coli; label from the status in PepcDB or PDB records

Row | Sequence | soluble on expression in E. coli
1 | MSLNKLAFLFPLLLAPGVAHAEPPQGVEFLHWWTSDGEQQALQTLKAQLKRHDIELLQSPVLGGGGDSAMTVLQARALAGNPPSFAQIEGPSIKAWDAIGILHNVNAVADEQRWDEVLYPLSIEINKTQNGYIALPLTLHRLNWLWVNHKLLKQLNLSAPKNWQEMFAAMELAEQNGIVPIAVGEQPWQVAQLFENLVISTGGVEFYTNAMVKLERDSIDSETLRQALTQFRRLSLLIDNQLPDSKWDTATQALADGQALFQIGGDWILGELLANQVSVPQEVGCYPTPDSDGVFLYNMDSLVFMSSKSFSSEAAQQTASALADVEFQAKFNKVKGSIPVRTDIDISDFNPCQVQSYQDFHYGVKHNLAVPSMIDSMAVNPVAQQAINSEIFRFYRNPKMEPDELIKRIIAISQSGEGHHHHHH | soluble
2 | MSLNKTNYNNIISINQQREFVLFQNIQKECPLLVVFDLDDTLIHTHINTNNLCINSSDIFTIRVNEIKYYCEVRKGVVETLERLSKQFRIMIYTASKKEYADQVVSHLEKNCKLFSKILYREDCLEEEGFIYKTIHNINYNVKRIICIDDNPSAWKKLENVYVCKKYNGGIDDEMIDIEKTFIKCCILCFLFVEGHHHHHH | soluble
3 | MSLNKYEPLFKSLTLPNGVEVRNRFVLAPLTHTSSNDDGTISDIELPYIEKRSKDVGIAINAASNVNDVGKAFPGQPSVAHDSDIEGLKELAQVMKKNGAKAIVQIHHGGAQALPELTPDGDVVAPSAISLKSFGQQKEHDAREMTAEEIEQTIRDFGEATRRAIEAGFDGVEIHGANHYLIHQFVSPYYNRRNDVWADNYKFPVAVIDEVVKAKKAHAYDDFIIGYRLSPEEAESPGISMEITEELIHQIANKPLDYIHVSLMDVNSVTREGKYKGENRLELIHQWINGRMPLIGIGSVFTAEDALNAVENIGVEFVALGCEILLDYDFVAKIKEGREDEIINAFDPNREDQHYLTPNLWEQFNQGFYPLPRKDKEGHHHHHH | soluble
4 | MSLNLEKINELTAQDMAGVNAAILEQLNSDVQLINQLGYYIVSGGGKRIRPMIAVLAARAVGYEGNAHVTIAALIEFIHTATLLHDDVVDESDMRRGKATANAAFGNAASVLVGDFIYTRAFQMMTSLGSLKVLEVMSEAVNVIAEGEVLQLMNVNDPDITEENYMRVIYSKTARLFEAAAQCSGILAGCTPEEEKGLQDYGRYLGTAFQLIDDLLDYNADGEQLGKNVGDDLNEGKPTLPLLHAMHHGTPEQAQMIRTAIEQGNGRHLLEPVLEAMNACGSLEWTRQRAEEEADKAIAALQVLPDTPWREALIGLAHIAVQRDREGHHHHHH | soluble
5 | MSLNPVDRPLLDIGLTRLEFLRISGKGLAGLTIAPALLSLLGCKQEDIDSGTVGLINTPKGVLVTQRARCTGCHRCEISCTNFNDGSVGTFFSRIKIHRNYFFGDNGVGSGGGLYGDLNYTADTCRQCKEPQCMNVCPIGAITWQQKEGCITVDHKRCIGCSACTTACPWMMATVNTESKKSSKCVLCGECANACPTGALKIIEWKDITEGHHHHHH | not soluble
6 | MSLNREDRLVSAANSYLANNYECFLDDGVILTNNYSLLGTIKLGGIDFLTTSKKDLIELHASIYSVFRNFVTPEFKFYFHTVKKKIVIDETNRDYGLIFSNDFMRAYNEKQKRESFYDISFYLTIEQDLLDTLNEPVMNKKHFADNNFEEFQRIIRAKLENFKDRIELIEELLSKYHPTRLKEYTKDGIIYSKQCEFYNFLVGMNEAPFICNRKDLYLKEKMHGGVKEVYFANKHGKILNDDLSEKYFSAIEISEYAPKSQSDLFDKINALDSEFIFMHAYSPKNSQVLKDKLAFTSRRIIISGGSKEQGMTLGCLSELVGNGDITLGSYGNSLVLFADSFEKMKQSVKECVSSLNAKGFLANAATFSMENYFFAKHCSFITLPFIFDVTSNEGHHHHHH | soluble
7 | MSLNRSSIAHFTASVFVLNESHDKILGIYHKIYQSWGWVGGHADGNADLLAVAVKEVQEETGLRSFKKLSEMPISIEALPVFGHHHRKYGYVSAHIHLNVTFLFEAKESDSLQKNTDETGGLAWIPLEKFSEKSSEKEMRVIYDKIITRIINKEGHHHHHH | not soluble
8 | MSLNSLDTSASTINGASIIQVIFEIFEISLQRKDYTSIVQCCEFMTMLTPNYLHLVSSYLNKSDLLDKYGKTGLSNMILGSVELSTGDYTFTIQLLKLTKVFIRESLSLKNIHISKRSKIDIINKLILHAIHIFESYYNWKYNNFLQKFEIAFHLTLIFYDVLHDVFTINPHQKDQLIISSSANKLLQLFLTPMDSIDLAPNTLTNILISPLNTTTKILGDKILGNLYSKVMNNSFKLCTLLISIRGSNRDLKPSNLEKLLFINSSKLVDVYTLPSYVHFKVQIIELLSYLVEAPWNDDYPFLLSFLGEAKSMAFLKEVLSDLSSPVQDWNLLRSLYIFFTTLLESKQDGLSILFLTGQFASNKKINDESSIDKKSSILTVLQKNSLLLDSTPEEVSCKLLETITYVLNTWTNSKIFIKDPKFVNSLLAKLKDSKKLFQKKENLTRDETVSLIKKYKLISRIVEIFALCIYNSTDSNSEILNFLNQEDLFELVHHFFQIDGFNKTFHDELNLKFKEKWPSLELQSFQKIPLSRINENENFGYDIPLLDIVLKADRSWNEPSKSQTNFKEEITDASLNLQYVNYEISTAKAWGALITTFVKRSTVPLNDGFVDLVEHFLKLNIDFGSDKQMFTQIYLERIELSFYILYSFKLSGKLLKEEKIIELMNKIFTIFKSGEIDFIKNIGKSLKNNFYRPLLRSVLVLLELVSSGDRFIELISDQLLEFFELVFSKGVYLILSEILCQINKCSTRGLSTDHTTQIVNLEDNTQDLLLLLSLFKKITNLNPSKNFNVILASSLNEVGTLKVILNLYSSAHLIRINDEPILGQITLTFISELCSIEPIAAKLINSGLYSVLLESPLSVAIQQGDIKPEFSPRLHNIWSNGLLSIVLLLLSQFGIKVLPETCLFVSYFGKQIKSTIYNWGDNKLAVSSSLIKETNQLVLLQKMLNLLNYQELFIQPKNSDDQQEAVELVIGEGHHHHHH | not soluble
9 | MSLNSLPKNIAIYTRVSTEKQDSNNSKANQLESIKQYINNQGWSDVPYEIYSDTQSASITSNSLNMYNDSDTMNPSIFLRDGLRRLIYDANYKKFDKLIVYSHDRLSRDIYEGLLIKHTLKKLNIDILYSKAGEQINSENQSINNFFENMLSNIAALESSIIGGRVLIGNRHNILNNIWAGGPAPYGYKLIALPSNRKKSKLSIYAPEARVVKKIFELYTTGYTPKDIVQFIKSEYSYNKDRLWTINSIKSILNNPVYTGTMVWNKKGGKRNPRKHPIDEYVYSKFDENIRIIDEKLWKKSLNIRKLQDENPKFLSEGHHHHHH | soluble
10 | MSLNTRQLLSVGIDIGTTTTQVIFSRLELVNRAAVSQVPRYEFIKREISWQSPVFFTPVDKQGGLKEAELKTLILEQYHAAGIEPESVDSGAIIITGESAKTRNARPAVMALSQSLGDFVVASAGPHLESVIAGHGAGAQTLSEQRLCRVLNIDIGGGTANYALFDAGKISGTACLNVGGRLLETDSHGRVVYAHKPGQMIVDECFGAGTDARSLTGAQLVQVTRRMAELIVEVIDGTLSPLAQALMQTGLLPAGVTPEIITLSGGVGECYRHQPADPFCFADIGPLLATALHDHPRLREMNVQFPAQTVRATVIGAGAHTLSLSGSTIWLEGVQLPLRNLPVAIPIDETDLVGAWQQALIQLDLDPKTDAYVLALPASLPVRYAAVLTVINALVDFVARFPNPHPLLVVAGQDFGKALGMLLRPQLQQLPLAVIDEVIVRAGDYIDIGTPLFGGSVVPVTVKSLAFPSEGHHHHHH | soluble
11 | MSLNVDLHCHSTASDGALSPSVLVARAHEHGVQALALTDHDTLEGLPEARQACVDLGMRWVSGVELSCTWGGATIHVLGYDFPLDAPPLLAAIQALHHGRWLRAEEIDRRLAAKGMPGTLEGARAVQHELGDSGNAPARPHFAEYLVRAGHVKDRGEAFRKWLGAGKLGDVKQHWPTLDETVATLRQSNAWVSLAHPMHYDLTRSKRRRLIADYIQAGGQALEVVNGMMPAEQVGTMSILAREFGLLASAGSDFHGPGTWGEIGAYRPLPEDLPPLWRRFSHEEGHHHHHH | soluble
12 | MSLNVNFFVTCIGDALKSRMARDSVLLLEKLGCRVNFPEKQGCCGQPAINSGYIKEAIPGMKNLIAALEDNDDPIISPAGSCTYAVKSYPTYLADEPEWASRAEKVAARMQDLTSFIVNTLGVVDVGASLQGRAVYHPSCSLARKLGVKDEPLTLLKNVRGLELLTFAEQDTCCGFGGTFSVKMAEISGEMVKEKVAHLMEVRPEYLIGADVSCLLNISGRLQREGQKVKVMHIAEVLMSREGHHHHHH | not soluble
13 | MSLNYEGRVLVVDDVNDIRMLVGHMVQNSGLKVEYGRNGLEALDKVTDAINDGDPYDLVLIDIHMPVMNGSEAIKQIRSSGIHFPVVAMTAATMKGVRDQLISQGFTNVLEKPINHDALLKVLDAHLTAVSEPIQVETTDAHDNDASQQDESSERQHFLLVEDDVDAADITALLLESLGIDVHVAHSGQECMDVFNQRNDWSKVLMDLNLPDASGLNLAKEIHKTSPQLELVLLSGEEPDAQSMADADITKFILKPINKKVLSDLVEEGHHHHHH | soluble
14 | MSLNYLMKEKYIGLHKFELDTPCLVIDYEKLKHNLEIMQQHGFTWGIGIRPHCKTHKCTQIARLQLEYGAIGISAAKLSEAAALVSKRITNVLITSLIVSEAKYSRLFNCLKSAPDLMLVVDDKDNIRMLNKLGKSLNQPVHVLLDIDSGIGRTGINPEAALEYGHFINGMNWLKLKGIQCYAGHLQHIQNYEERKAFSLQVMEMASRIVKSFRDANLPCEILTGTGTGTFDIDVEASEVTEIQPGSYAVMDVEYGSIGSKNNPSSFQLFKNSMTLLTSVISSNRREHATVDAGTKSIYVDPHHKPHIISHPGLVYDWGGFGDEHGKVFSCEGGSHFLQNGDVLEIIVPHCDPTINLYDKFYITENNVVVDIWDIDMRGKSEGHHHHHH | soluble
15 | MSLNYTTQMDAAKKGIITKEMQVVSEKEGINIETLMNLMAEGKIVIPANKNHKSISAEGVGQGLRTKINVNLGISKDCANIELELEKVKKAIDMNAESIMDLSNYGKTYDFRKRLVEVSTAMIGTVPMYDVVGFYDKELKDITVDEFFEVVEKHAKDGVDFVTIHAGLNRETIETFRRNKRLTNIVSRGGSLLFAWMELNNRENPFYEYFDRLLDICEKYDLTLSLGDACRPGSIADATDAVQIKELITLGELTKRAWERNVQVIIEGPGHMAMNEIEANVLLEKKLCHGAPFYVLGPIVTDIAPGYDHITSAIGGAMAASYGADFLCYVTPAEHLRLPNLEDVREGIVATKIAAHAADIAKGISGARDIDNKMSDARKRLDWDEMFSLAIDSEKAIRYRKESTPEHKDSCTMCGKMCSIRNMNKILEGKDINLLREGHHHHHH | soluble
16 | MSLPIDEHVNAVKTVVVPAAGLGTRFLPATKTVPKELLPVVDTPGIELIAAEAAELGATRLAIITAPNKAGVLAHFERSSELEETLMERGKTDQVEIIRRAADLIKAVPVTQDKPLGLGHAVGLAESVLDDDEDVVAVMLPDDLVLPTGVMERMAQVRAEFGGSVLCAVEVSEADVSKYGIFEIEADTKDSDVKKVKGMVEKPAIEDAPSRLAATGRYLLDRKIFDALRRITPGAGGELQLTDAIDLLIDEGHPVHIVIHQGKRHDLGNPGGYIPACVDFGLSHPVYGAQLKDAIKQILAEHEAAERIADDSQVKLEHHHHHH | soluble
17 | MSLPLPKAELHLHIEGTLEPELAFALAARNGVPLPYAHTDELRKAYQFDDLQSFLNLYYELMAVLRTEQDFEDLANAYLPRAAAQGVRHAEIFFDPQAHIARGVAMGTVVEGLWRALGRSTENHGVSTQLIMCFLRDESAESALETLEAAKPYLDRIIGIGLDSAEVGHPPAKFREVYEAAAALGLRRVAHAGEEGPPEYITEALDVLGVERIDHGLRCMEDDALVERLVRERVPLTLCPLSNVRLRAVDVLAEHPLPAMLDAGLLCTVNSDDPAYFGGYVADNFHAVRDALGLDQERMRELARNSFVASFLEHDEERRARYLAEVEAYDFPGEGHHHHHH | soluble
